Data on two molecules can be found in PMC5896931 (Molecular Biology of the Cell, 2018).

One experiment concerns the target T1, 6His-SUMO-Cap2 (budding yeast, UniProt P13517 1-287).
T1 sequence (looked up): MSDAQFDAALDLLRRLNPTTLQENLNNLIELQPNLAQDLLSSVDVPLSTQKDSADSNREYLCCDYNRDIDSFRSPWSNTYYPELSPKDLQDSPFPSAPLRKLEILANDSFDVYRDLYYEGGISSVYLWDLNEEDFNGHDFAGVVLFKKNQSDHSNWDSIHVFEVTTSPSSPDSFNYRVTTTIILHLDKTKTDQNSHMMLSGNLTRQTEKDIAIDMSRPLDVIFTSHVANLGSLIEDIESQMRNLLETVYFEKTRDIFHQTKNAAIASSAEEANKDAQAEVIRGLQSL
Description: pull-down.

Experiment [1] concerns the target T2, Aim21 (Altered Inheritance of Mitochondria 21), full length, 6His-SUMO tag cleaved (budding yeast, UniProt P40563 1-679).
T2 sequence (looked up): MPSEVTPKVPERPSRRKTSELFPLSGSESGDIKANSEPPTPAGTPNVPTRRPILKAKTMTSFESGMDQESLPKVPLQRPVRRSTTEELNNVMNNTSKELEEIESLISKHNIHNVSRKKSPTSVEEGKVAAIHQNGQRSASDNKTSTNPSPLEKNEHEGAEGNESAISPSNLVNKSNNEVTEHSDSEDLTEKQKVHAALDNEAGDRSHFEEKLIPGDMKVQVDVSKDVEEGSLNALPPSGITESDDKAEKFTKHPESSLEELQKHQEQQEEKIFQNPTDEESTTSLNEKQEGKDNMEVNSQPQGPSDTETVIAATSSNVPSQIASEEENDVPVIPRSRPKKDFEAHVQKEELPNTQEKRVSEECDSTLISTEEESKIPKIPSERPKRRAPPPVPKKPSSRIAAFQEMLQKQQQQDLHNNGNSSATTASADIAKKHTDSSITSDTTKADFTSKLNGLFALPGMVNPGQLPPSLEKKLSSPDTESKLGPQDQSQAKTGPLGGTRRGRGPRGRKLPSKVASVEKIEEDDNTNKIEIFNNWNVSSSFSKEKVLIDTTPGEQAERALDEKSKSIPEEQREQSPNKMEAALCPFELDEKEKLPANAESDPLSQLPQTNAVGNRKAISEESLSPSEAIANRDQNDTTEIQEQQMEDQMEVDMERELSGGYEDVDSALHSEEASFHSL
Description: pull-down.

B1: Cap1, 6His-SUMO tag cleaved (natural protein, budding yeast, UniProt P28495 1-268, looked up)
chain: MSSSKFEEVINKIINDSPPGELREVYDDLIKITSENSKNTILDAIENYNVQNCIPIEVNGNSVIISKYNKEGAKFFDPVNSVIFSVNHLERKGLDIEPYEFTHAKIEKGQLKELHDKLHEYLLQSFPGDVSFAVYPVPEEISKISIIIVSTKYNPNNFWNGHWRSSYIYDLETRELSGQISTQVHYYEDGNVSFQSGKDINQSNVDDVVCTIRDIETNFENDLDLSFFDLNEKQFKALRRRLPVTRSKINWGSAIGSYRLGKNAAEGK
Take B1: the binding result with 6His-SUMO-Cap2 is “binds”.

B2: 6His-SUMO-Tda2 (natural protein, budding yeast, UniProt P40045 1-126, looked up)
chain: MSMQIEIKDGRSDNSPLPERKLVTLIQESYDSLKDDNEINLSTESTSNLLIKLVLEKLEKHSSLYKYIASVTTLNIEGLNEENANFSLKNDIGASWESKKDGIFNYKLEDKNNNECYLITILWLHK
As to B2, the binding result in experiment [1] was “binds”.
